Patent US7919236 (GIVAUDAN, dated 2011)

What was measured:
Assay in all cases: cell-based or functional assay
[1] = target: human TAS1R2/TAS1R3 sweet taste receptor heterodimer (human) (UniProt Q8TE23)
[2] = target: T1, mouse T2R5 bitter receptor (mouse, UniProt Q9JKT4 1-300)
T1 sequence (looked up): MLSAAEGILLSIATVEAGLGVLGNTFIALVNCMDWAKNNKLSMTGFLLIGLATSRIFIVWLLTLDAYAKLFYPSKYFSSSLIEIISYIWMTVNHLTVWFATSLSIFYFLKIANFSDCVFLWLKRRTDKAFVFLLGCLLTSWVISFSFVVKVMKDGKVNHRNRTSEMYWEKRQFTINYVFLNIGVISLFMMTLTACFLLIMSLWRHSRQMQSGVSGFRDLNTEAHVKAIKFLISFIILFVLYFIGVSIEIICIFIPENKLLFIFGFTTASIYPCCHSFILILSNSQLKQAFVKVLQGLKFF

[3] = target: human TAS2R16 bitter receptor (human) (UniProt Q9NYV7)
Sequence of human TAS2R16 bitter receptor (human) (Q9NYV7 whole entry): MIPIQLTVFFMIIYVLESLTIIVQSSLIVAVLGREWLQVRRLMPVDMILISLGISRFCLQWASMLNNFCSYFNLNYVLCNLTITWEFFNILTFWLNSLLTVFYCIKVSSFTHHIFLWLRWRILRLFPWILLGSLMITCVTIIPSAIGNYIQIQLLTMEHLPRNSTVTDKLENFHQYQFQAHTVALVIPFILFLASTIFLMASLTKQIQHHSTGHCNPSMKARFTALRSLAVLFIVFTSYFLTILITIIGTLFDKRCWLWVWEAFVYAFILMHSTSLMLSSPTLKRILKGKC

[4] = target: human TAS1R2/TAS1R3 sweet taste receptor heterodimer (human, UniProt Q8TE23 20-839; Q7RTX0 21-852)
Sequence of human TAS1R2/TAS1R3 sweet taste receptor heterodimer (Q8TE23 20-839, chain 1 of 2): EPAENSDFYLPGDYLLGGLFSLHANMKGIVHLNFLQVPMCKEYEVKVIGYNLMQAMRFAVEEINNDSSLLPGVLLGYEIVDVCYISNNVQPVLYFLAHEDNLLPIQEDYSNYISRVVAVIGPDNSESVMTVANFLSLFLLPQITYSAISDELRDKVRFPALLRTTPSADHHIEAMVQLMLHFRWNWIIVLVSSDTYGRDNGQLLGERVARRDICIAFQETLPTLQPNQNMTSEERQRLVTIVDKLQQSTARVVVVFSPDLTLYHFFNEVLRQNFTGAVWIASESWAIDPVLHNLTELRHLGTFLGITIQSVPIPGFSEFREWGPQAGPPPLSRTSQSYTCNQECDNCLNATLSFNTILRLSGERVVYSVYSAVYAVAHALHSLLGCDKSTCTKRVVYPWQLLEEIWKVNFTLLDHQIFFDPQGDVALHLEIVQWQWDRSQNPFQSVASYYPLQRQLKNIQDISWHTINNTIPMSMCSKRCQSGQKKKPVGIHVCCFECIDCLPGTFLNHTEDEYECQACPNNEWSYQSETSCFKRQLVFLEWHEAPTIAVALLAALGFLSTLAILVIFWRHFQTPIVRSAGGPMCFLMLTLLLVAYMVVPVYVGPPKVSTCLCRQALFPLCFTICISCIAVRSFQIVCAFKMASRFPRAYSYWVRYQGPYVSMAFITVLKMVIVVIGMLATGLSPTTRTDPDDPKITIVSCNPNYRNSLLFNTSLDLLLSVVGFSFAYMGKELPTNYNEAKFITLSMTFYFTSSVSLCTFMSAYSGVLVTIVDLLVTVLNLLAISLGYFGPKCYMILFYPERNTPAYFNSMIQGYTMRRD
Sequence of human TAS1R2/TAS1R3 sweet taste receptor heterodimer (Q7RTX0 21-852, chain 2 of 2): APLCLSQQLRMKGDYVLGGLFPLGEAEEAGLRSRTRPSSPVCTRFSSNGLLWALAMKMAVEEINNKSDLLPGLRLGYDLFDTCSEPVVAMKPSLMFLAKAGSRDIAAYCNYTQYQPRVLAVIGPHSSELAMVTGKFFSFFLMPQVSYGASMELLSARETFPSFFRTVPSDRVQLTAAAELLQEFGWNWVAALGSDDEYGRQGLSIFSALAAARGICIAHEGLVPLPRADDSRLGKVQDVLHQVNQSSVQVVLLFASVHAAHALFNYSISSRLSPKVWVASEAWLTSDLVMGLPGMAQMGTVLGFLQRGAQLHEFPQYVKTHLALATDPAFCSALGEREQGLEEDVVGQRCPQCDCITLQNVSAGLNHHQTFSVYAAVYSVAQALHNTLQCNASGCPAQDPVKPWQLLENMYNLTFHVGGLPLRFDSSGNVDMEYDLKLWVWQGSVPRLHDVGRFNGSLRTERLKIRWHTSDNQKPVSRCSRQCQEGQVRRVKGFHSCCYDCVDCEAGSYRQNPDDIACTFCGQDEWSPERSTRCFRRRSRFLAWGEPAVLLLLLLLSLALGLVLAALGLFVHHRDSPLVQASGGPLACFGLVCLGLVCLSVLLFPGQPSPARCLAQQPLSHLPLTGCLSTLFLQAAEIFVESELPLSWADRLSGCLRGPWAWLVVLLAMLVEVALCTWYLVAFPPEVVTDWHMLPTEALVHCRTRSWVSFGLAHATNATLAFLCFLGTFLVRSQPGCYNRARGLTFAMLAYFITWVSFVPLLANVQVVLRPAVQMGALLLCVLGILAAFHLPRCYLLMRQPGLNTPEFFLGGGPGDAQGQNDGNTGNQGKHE

Sequence of human TAS1R2/TAS1R3 sweet taste receptor heterodimer (human) (Q8TE23 20-839, chain 1 of 2): as the sequence (Q8TE23 20-839, chain 1 of 2) above
Sequence of human TAS1R2/TAS1R3 sweet taste receptor heterodimer (human) (Q7RTX0 21-852, chain 2 of 2, further chain): as the sequence (Q7RTX0 21-852, chain 2 of 2) above

## Gα15
[1]
  increase in mean Fluo-4 calcium fluorescence over baseline after 2.5 mM sucralose: 1300 RFU

## wild-type Gα16 (from UniProt P30679 1-374)
[2]
  increase in mean Fluo-4 calcium fluorescence over baseline after 10 µM cycloheximide: 2570 RFU
[3]
  increase in mean Fluo-4 calcium fluorescence over baseline after 5 mM phenyl-β-D-glucopyranoside: 3490 RFU

B1: Gα16-gustducin44 chimeric G-protein (other)
chain: MARSLTWRCCPWCLTEDEKAAARVDQEINRILLEQKKQDRGELKLLLLGPGESGKSTFIKQMRIIHGAGYSEEERKGFRPLVYQNIFVSMRAMIEAMERLQIPFSRPESKHHASLVMSQDPYKVTTFEKRYAAAMQWLWRDAGIRACYERRREFHLLDSAVYYLSHLERITEEGYVPTAQDVLRSRMPTTGINEYCFSVQKTNLRIVDVGGQKSERKKWIHCFENVIALIYLASLSEYDQCLEENNQENRMKESLALFGTILELPWFKSTSVILFLNKTDILEEKIPTSHLATYFPSFQGPKQDAEAAKRFILDMYTRMYTGCVDGPEGSNLKKEDKEIYSHMTCATDTQNVKFVFDAVTDIIIKENLKDCGLF
[2]
  fluorescence signal after 10 uM cycloheximide, relative to wild-type Gα16: 5 fold vs wild-type Gα16
[4]
  fluorescence signal after 2.5 mM aspartame, acesulfame K or sucralose, relative to wild-type Gα16: 2 fold vs wild-type Gα16
